Experimental data published in paper PMC8227628, “DisA Limits RecG Activities at Stalled or Reversed Replication Forks” (Cells, 2021).

What was measured:
DisA [1] = biological target: T1, DisA (Bacillus subtilis, UniProt P37573); assay: TLC of conversion to c-di-AMP; type: biochemical; conditions: 10 mM MgCl2, 100 µM ATP, pH 7.5, 37 °C, no DNA; labelled compound
T1 construct: full length, expressed in E. coli BL21(DE3) pLysS; octamer; C-terminal His tag in the pull-down variant
T1 sequence (P37573 1-360): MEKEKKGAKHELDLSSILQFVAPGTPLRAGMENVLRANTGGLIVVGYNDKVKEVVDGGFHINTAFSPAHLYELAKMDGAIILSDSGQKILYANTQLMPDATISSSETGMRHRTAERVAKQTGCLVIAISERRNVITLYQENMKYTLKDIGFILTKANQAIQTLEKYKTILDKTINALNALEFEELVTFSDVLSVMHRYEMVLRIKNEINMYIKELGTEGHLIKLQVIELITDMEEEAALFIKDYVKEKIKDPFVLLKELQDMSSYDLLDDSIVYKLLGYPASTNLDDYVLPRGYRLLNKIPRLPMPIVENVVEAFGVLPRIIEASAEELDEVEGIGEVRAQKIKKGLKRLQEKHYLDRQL

RecG = biological target: T2, RecG (Bacillus subtilis, UniProt O34942 1-682); assay: EMSA; 5 mM ATPgS; 37 C; 0.2% glutaraldehyde before loading; apparent Kd; G-I and minor G-II complexes; EMSA: 0.1 nM HJ-J3 in buffer B (composition not in material) with 5 mM ATPgS, 15 min, 37 C, 0.2% glutaraldehyde before 6% PAGE in TAE; DNase I: buffer C 50 mM Tris-HCl pH 7.5, 1 mM DTT, 50 mM NaCl, 10 mM MgCl2, 0.05 mg/mL BSA, 5% glycerol, 5 mM ATPgS, 37 C; conditions: protein: recombinant; label: 32P (gamma-32P, 5' end of one strand); four-way Holliday junction of 4 strands, 1 copy each, heterologous arms
T2 sequence: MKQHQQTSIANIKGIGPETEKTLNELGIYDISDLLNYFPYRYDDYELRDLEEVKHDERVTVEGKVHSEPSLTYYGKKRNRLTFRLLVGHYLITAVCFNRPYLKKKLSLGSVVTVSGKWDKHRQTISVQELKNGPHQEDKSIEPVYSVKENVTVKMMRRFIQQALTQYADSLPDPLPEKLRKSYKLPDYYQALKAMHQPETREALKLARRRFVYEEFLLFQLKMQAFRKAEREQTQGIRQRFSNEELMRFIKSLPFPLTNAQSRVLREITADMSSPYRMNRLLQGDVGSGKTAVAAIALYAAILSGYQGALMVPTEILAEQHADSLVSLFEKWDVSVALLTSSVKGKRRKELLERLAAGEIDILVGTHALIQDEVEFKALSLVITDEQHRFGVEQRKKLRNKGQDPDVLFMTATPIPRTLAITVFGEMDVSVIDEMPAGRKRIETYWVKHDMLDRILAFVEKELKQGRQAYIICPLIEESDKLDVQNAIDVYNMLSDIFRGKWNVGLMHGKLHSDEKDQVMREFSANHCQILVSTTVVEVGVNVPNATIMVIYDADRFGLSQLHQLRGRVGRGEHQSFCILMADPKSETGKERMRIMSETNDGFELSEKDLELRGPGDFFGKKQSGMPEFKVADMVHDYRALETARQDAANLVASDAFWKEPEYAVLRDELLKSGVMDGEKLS

DisA [2] = biological target: T3, DisA (Bacillus subtilis, UniProt P37573 1-360); assay: EMSA; 5 mM ATPgS; 37 C; 0.2% glutaraldehyde before loading; apparent Kd; complexes retained in well; EMSA: 0.1 nM HJ-J3 in buffer B (composition not in material) with 5 mM ATPgS, 15 min, 37 C, 0.2% glutaraldehyde before 6% PAGE in TAE; DNase I: buffer C 50 mM Tris-HCl pH 7.5, 1 mM DTT, 50 mM NaCl, 10 mM MgCl2, 0.05 mg/mL BSA, 5% glycerol, 5 mM ATPgS, 37 C; conditions: protein: recombinant; chain copies: 8; label: 32P (gamma-32P, 5' end of one strand); four-way Holliday junction of 4 strands, 1 copy each, heterologous arms
T3 sequence: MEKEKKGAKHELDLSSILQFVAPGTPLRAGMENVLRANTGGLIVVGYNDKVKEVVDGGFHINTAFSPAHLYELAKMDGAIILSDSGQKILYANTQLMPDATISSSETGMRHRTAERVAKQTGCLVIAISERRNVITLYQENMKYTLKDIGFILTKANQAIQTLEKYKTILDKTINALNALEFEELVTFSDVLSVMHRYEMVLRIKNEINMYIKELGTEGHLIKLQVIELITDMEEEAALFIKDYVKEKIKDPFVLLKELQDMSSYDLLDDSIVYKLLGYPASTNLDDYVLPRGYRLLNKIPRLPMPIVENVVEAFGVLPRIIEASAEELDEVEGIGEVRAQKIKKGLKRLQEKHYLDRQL

DisA;RecG = biological target: T4, DisA;RecG (Bacillus subtilis;Bacillus subtilis, UniProt P37573;O34942 1-360;1-682, |); assay: DNase I footprinting; 5 mM ATPgS, 10 mM Mg2+; 60 nM RecG with increasing DisA; shorter protection on both sides of junction; ternary complex proposed; EMSA: 0.1 nM HJ-J3 in buffer B (composition not in material) with 5 mM ATPgS, 15 min, 37 C, 0.2% glutaraldehyde before 6% PAGE in TAE; DNase I: buffer C 50 mM Tris-HCl pH 7.5, 1 mM DTT, 50 mM NaCl, 10 mM MgCl2, 0.05 mg/mL BSA, 5% glycerol, 5 mM ATPgS, 37 C; conditions: protein: recombinant;recombinant; tags: ;; chain copies: 8;1; label: 32P (gamma-32P, 5' end of one strand); four-way Holliday junction of 4 strands, 1 copy each, heterologous arms
T4 sequence 1: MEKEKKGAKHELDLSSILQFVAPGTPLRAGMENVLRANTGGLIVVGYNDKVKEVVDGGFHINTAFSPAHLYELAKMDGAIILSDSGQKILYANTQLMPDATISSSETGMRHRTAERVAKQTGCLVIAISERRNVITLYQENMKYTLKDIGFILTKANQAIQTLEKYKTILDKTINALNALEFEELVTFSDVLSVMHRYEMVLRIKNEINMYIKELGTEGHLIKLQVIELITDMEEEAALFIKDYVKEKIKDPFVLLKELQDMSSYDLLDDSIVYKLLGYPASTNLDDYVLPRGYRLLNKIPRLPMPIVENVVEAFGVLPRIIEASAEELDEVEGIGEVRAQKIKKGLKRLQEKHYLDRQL
T4 sequence 2: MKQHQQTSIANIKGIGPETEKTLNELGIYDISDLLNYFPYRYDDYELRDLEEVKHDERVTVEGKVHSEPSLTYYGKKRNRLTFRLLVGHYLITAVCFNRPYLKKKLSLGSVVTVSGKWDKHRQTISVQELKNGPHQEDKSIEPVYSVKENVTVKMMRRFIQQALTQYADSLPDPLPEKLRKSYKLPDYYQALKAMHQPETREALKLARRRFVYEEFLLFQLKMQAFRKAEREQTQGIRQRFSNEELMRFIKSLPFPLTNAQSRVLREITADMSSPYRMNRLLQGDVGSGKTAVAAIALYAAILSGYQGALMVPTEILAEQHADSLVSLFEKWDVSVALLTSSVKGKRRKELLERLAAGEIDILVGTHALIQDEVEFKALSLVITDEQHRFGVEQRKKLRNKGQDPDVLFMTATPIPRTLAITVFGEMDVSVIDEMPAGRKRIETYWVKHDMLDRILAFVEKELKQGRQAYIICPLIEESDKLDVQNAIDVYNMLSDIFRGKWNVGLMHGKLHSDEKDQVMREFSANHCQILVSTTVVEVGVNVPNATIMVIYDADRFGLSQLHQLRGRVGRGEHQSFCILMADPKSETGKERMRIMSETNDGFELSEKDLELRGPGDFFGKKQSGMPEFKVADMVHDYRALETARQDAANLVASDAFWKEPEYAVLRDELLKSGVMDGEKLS

His-tagged DisA = biological target: T5, His-tagged DisA (B. subtilis, UniProt P37573 1-360); assay: cell-based or functional assay
T5 sequence (looked up): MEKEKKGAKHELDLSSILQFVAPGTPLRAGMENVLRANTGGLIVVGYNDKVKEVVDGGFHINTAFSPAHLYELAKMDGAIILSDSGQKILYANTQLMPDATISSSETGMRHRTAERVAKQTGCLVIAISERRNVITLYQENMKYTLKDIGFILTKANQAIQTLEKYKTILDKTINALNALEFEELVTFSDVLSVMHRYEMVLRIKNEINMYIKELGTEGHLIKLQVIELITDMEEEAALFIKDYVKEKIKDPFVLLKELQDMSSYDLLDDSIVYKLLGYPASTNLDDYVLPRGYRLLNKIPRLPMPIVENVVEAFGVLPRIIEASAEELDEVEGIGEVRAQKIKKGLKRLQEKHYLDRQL

Nc1ncnc2c1ncn2[C@@H]1O[C@@H]2COP(=O)(O)O[C@H]3[C@@H](O)[C@H](n4cnc5c(N)ncnc54)O[C@@H]3COP(=O)(O)O[C@H]2[C@H]1O [c-di-AMP]
TLC of [α^32P]-ATP conversion to c-di-AMP (DisA [1]): it efficiently converted two ATP molecules into c-di-AMP

B1: HJ-J3 DNA (fixed Holliday junction) (structured_DNA)
DNA 1: CGCAAGCGACAGGAACCTCGAGAAGCTTCCGGTAGCAGCCTGAGCGGTGGTTGAATTCCTCGAGGTTCCTGTCGCTTGCG
DNA 2: CGCAAGCGACAGGAACCTCGAGGAATTCAACCACCGCTCAACTCAACTGCAGTCTAGACTCGAGGTTCCTGTCGCTTGCG
DNA 3: CGCAAGCGACAGGAACCTCGAGTCTAGACTGCAGTTGAGTCCTTGCTAGGACGGATCCCTCGAGGTTCCTGTCGCTTGCG
DNA 4: CGCAAGCGACAGGAACCTCGAGGGATCCGTCCTAGCAAGGGGCTGCTACCGGAAGCTTCTCGAGGTTCCTGTCGCTTGCG
Kd (RecG): 4 ± 0.3 nM | Kd (DisA [2]): 17 ± 1 nM | binding result (DisA;RecG): binds

B2: native RecG (natural protein, B. subtilis, UniProt O34942 1-682, looked up)
chain: MKQHQQTSIANIKGIGPETEKTLNELGIYDISDLLNYFPYRYDDYELRDLEEVKHDERVTVEGKVHSEPSLTYYGKKRNRLTFRLLVGHYLITAVCFNRPYLKKKLSLGSVVTVSGKWDKHRQTISVQELKNGPHQEDKSIEPVYSVKENVTVKMMRRFIQQALTQYADSLPDPLPEKLRKSYKLPDYYQALKAMHQPETREALKLARRRFVYEEFLLFQLKMQAFRKAEREQTQGIRQRFSNEELMRFIKSLPFPLTNAQSRVLREITADMSSPYRMNRLLQGDVGSGKTAVAAIALYAAILSGYQGALMVPTEILAEQHADSLVSLFEKWDVSVALLTSSVKGKRRKELLERLAAGEIDILVGTHALIQDEVEFKALSLVITDEQHRFGVEQRKKLRNKGQDPDVLFMTATPIPRTLAITVFGEMDVSVIDEMPAGRKRIETYWVKHDMLDRILAFVEKELKQGRQAYIICPLIEESDKLDVQNAIDVYNMLSDIFRGKWNVGLMHGKLHSDEKDQVMREFSANHCQILVSTTVVEVGVNVPNATIMVIYDADRFGLSQLHQLRGRVGRGEHQSFCILMADPKSETGKERMRIMSETNDGFELSEKDLELRGPGDFFGKKQSGMPEFKVADMVHDYRALETARQDAANLVASDAFWKEPEYAVLRDELLKSGVMDGEKLS
inhibition of the DAC activity (c-di-AMP synthesis) of DisA (25 nM) with HJ-J3 DNA (125 nM) and 100 µM ATP, RecG 7 to 30 nM (His-tagged DisA): ~11 fold
